US11795460B2, “Compositions and methods for TTR gene editing and treating ATTR amyloidosis” (Intellia Therapeutics, Inc., priority 2017, dated 2023)
Strand notation (5' to 3'): a small letter for the sugar, then the base; units joined by * are phosphorothioate-linked, units joined directly phosphodiester-linked; [ ] holds rarer units or linkages, { } end groups; capitals alone tell only the bases. m = 2'-O-methyl; r = 2'-OH (RNA)

B1: G000503: TTR Cyno specific sgRNA modified sequence, SEQ ID No. 115; guide sequence of CR005372 (nucleic acid)
guide: mA*mA*mA*rArGrGrCrUrGrCrUrGrArUrGrArGrArCrCrGrUrUrUrUrArGrAmGmCmUmAmGmAmAmAmUmAmGmCrArArGrUrUrArArArArUrArArGrGrCrUrArGrUrCrCrGrUrUrArUrCrAmAmCmUmUmGmAmAmAmAmAmGmUmGmGmCmAmCmCmGmAmGmUmCmGmGmUmGmCmU*mU*mU*mU
B2: G000505: TTR Cyno specific sgRNA modified sequence, SEQ ID No. 117; guide sequence of CR005365 (nucleic acid)
guide: mC*mA*mU*rUrGrArCrArGrCrArGrGrArCrUrGrCrCrUrGrUrUrUrUrArGrAmGmCmUmAmGmAmAmAmUmAmGmCrArArGrUrUrArArArArUrArArGrGrCrUrArGrUrCrCrGrUrUrArUrCrAmAmCmUmUmGmAmAmAmAmAmGmUmGmGmCmAmCmCmGmAmGmUmCmGmGmUmGmCmU*mU*mU*mU
B3: G000504: TTR Cyno specific sgRNA modified sequence, SEQ ID No. 116; guide sequence of CR005364 (nucleic acid)
guide: mA*mA*mA*rGrGrCrUrGrCrUrGrArUrGrArGrArCrCrUrGrUrUrUrUrArGrAmGmCmUmAmGmAmAmAmUmAmGmCrArArGrUrUrArArArArUrArArGrGrCrUrArGrUrCrCrGrUrUrArUrCrAmAmCmUmUmGmAmAmAmAmAmGmUmGmGmCmAmCmCmGmAmGmUmCmGmGmUmGmCmU*mU*mU*mU
B4: G000506: TTR Cyno specific sgRNA modified sequence, SEQ ID No. 118; guide sequence of CR005366 (nucleic acid)
guide: mA*mU*mA*rCrCrArGrUrCrCrArGrCrGrArGrGrCrArGrGrUrUrUrUrArGrAmGmCmUmAmGmAmAmAmUmAmGmCrArArGrUrUrArArArArUrArArGrGrCrUrArGrUrCrCrGrUrUrArUrCrAmAmCmUmUmGmAmAmAmAmAmGmUmGmGmCmAmCmCmGmAmGmUmCmGmGmUmGmCmU*mU*mU*mU

Assays:
[1] = test system: TTR; assay: TTR editing in primary cyno hepatocytes electroporated with Spy Cas9 protein and sgRNAs (Tables 14, 15); assay type: cell-based, cynomolgus monkey; details: Table 15; primary cyno hepatocytes electroporated with Spy Cas9 protein (RNP) and cyno specific sgRNAs
Procedure: (§1) Primary liver hepatocytes. Primary human liver hepatocytes (PHH) and primary cynomolgus liver hepatocytes (PCH) (Gibco) were cultured per the manufacturer's protocol (Invitrogen, protocol 11.28.2012). In brief, the cells were thawed and resuspended in hepatocyte thawing medium with supplements (Gibco, Cat. CM7000) followed by centrifugation at 100 g for 10 minutes for human and 80 g for 4 minutes for cyno. The supernatant was discarded and the pelleted cells resuspended in hepatocyte plating medium plus supplement pack (Invitrogen, Cat. A1217601 and CM3000). Cells were counted and plated on Bio-coat collagen I coated 96-well plates (ThermoFisher, Cat. 877272) at a density of 33,000 cells/well for human or 60,000 cells/well for cyno (or 65,000 cells/well when assaying effects on TTR protein, described further below). Plated cells were allowed to settle and adhere for 6 or 24 hours in a tissue culture incubator at 37° C. and 5% CO2 atmosphere. After incubation cells were checked for monolayer formation and media was replaced with hepatocyte culture medium with serum-free supplement pack (Invitrogen, Cat. A1217601 and CM4000).
[…] formation was performed prior to electroporation or transfection of Spy Cas9 protein loaded with guide RNAs (RNPs) onto cells. For dual guide (dgRNAs), individual crRNA and trRNA was pre-annealed by mixing equivalent amounts of reagent and incubating at 95° C. for 2 min and cooling to room temperature. Single guide (sgRNAs) were boiled at 95° C. for 2 min and cooling to room temperature. The boiled dgRNA or sgRNA was incubated with Spy Cas9 protein in Optimem for 10 minutes at room temperature to form a ribonucleoprotein (RNP) complex.
For RNP electroporation into primary human and cyno hepatocytes, the cells are thawed and resuspended in Lonza electroporation Primary Cell P3 buffer at a concentration of 2500 cells per μL for human hepatocytes and 3500 cells per μL for cyno hepatocytes. A volume of 20 μL of resuspended cells and 5 μL of RNP are mixed together per guide. 20 μL of the mixture is placed into a Lonza electroporation plate. The cells were electroporated using the Lonza nucleofector with the preset protocol EX-147. Post electroporation, the cells are transferred into a Biocoat plate containing pre-warmed maintenance media and placed in a tissue culture incubator at 37° C. and 5% CO2.
Transfected cells were harvested post-transfection at 24, 48, or 72 hours. The genomic DNA was extracted from each well of a 96-well plate using 50 μL/well BuccalAmp DNA Extraction solution (Epicentre, Cat. QE09050) per manufacturer's protocol. All DNA samples were subjected to PCR and subsequent NGS analyses, as described herein.
(§2) To quantitatively determine the efficiency of editing at the target location in the genome, sequencing was utilized to identify the presence of insertions and deletions introduced by gene editing.
(§3) Primers were designed around the target site within the gene of interest (e.g. TTR), and the genomic area of interest was amplified.
(§4) Additional PCR was performed per the manufacturer's protocols (Illumina) to add chemistry for sequencing. The amplicons were sequenced on an Illumina MiSeq instrument. The reads were aligned to a reference genome (e.g., the human reference genome (hg38), the cynomologus reference genome (mf5), the rat reference genome (rn6), or the mouse reference genome (mm10)) after eliminating those having low quality scores. The resulting files containing the reads were mapped to the reference genome (BAM files), where reads that overlapped the target region of interest were selected and the number of wild type reads versus the number of reads which contain an insertion, substitution, or deletion was calculated.
The editing percentage (e.g., the “editing efficiency” or “percent editing” or “indel frequency”) is defined as the total number of sequence reads with insertions/deletions (“indels”) or substitutions over the total number of sequence reads, including wild type. […]

[2] = test system: TTR; assay: EC50 and maximum editing in primary cyno hepatocytes treated with LNP formulated U-depleted Spy Cas9 mRNA and sgRNAs (Tables 20, 22); assay type: cell-based, cynomolgus monkey; design: key: % of sequence reads with indels or substitutions over total reads; details: Table 22, LNP with U-depleted Spy Cas9 mRNA and cyno specific sgRNAs, dose response
Procedure: as §1
(§5) For LNPs prepared using the cross-flow technique, the LNPs were formed by impinging jet mixing of the lipid in ethanol with two volumes of RNA solutions and one volume of water. The lipid in ethanol is mixed through a mixing cross with the two volumes of RNA solution. A fourth stream of water is mixed with the outlet stream of the cross through an inline tee. (See WO2016010840 FIG. 2.) The LNPs were held for 1 hour at room temperature, and further diluted with water (approximately 1:1 v/v). Diluted LNPs were concentrated using tangential flow filtration on a flat sheet cartridge (Sartorius, 100 kD MWCO) and then buffer exchanged by diafiltration into 50 mM Tris, 45 mM NaCl, 5% (w/v) sucrose, pH 7.5 (TSS). Alternatively, the final buffer exchange into TSS was completed with PD-10 desalting columns (GE). If required, formulations were concentrated by centrifugation with Amicon 100 kDa centrifugal filters (Millipore). The resulting mixture was then filtered using a 0.2 μm sterile filter. The final LNP was stored at 4° C. or −80° C. until further use.
as §2, §3, §4
(§6) The editing percentage (e.g., the “editing efficiency” or “percent editing” or “indel frequency”) is defined as the total number of sequence reads with insertions/deletions (“indels”) or substitutions over the total number of sequence reads, including wild type.
(§7) Lipid nanoparticle formulations of modified sgRNAs targeting human TTR and the cyno matched sgRNA sequences were tested on primary human hepatocytes and primary cyno hepatocytes in a dose response curve. Primary human and cyno hepatocytes were plated as described in Example 1. Both cell lines were incubated at 37° C., 5% CO2 for 24 hours prior to treatment with LNPs. […]

[3] = test system: TTR; assay: EC50 and maximum editing in primary human hepatocytes treated with LNP formulated U-depleted Spy Cas9 mRNA and sgRNAs (Tables 19, 21); assay type: cell-based; design: key: % of sequence reads with indels or substitutions over total reads; details: Table 21, LNP with U-depleted Spy Cas9 mRNA and cyno specific sgRNAs, dose response
Procedure: as §1, §5, §2, §3, §4, §6, §7

[4] = test system: TTR; assay: TTR editing in primary cyno hepatocytes treated with LNP formulated Spy Cas9 mRNA (SEQ ID NO: 2) and sgRNAs (Tables 17, 18); assay type: cell-based, cynomolgus monkey; details: LNP formulated Spy Cas9 mRNA (SEQ ID NO: 2) and cyno matched sgRNAs, 72 hours post treatment
Procedure: as §1
In general, the lipid nanoparticle components were dissolved in 100% ethanol with the lipid component of various molar ratios. The RNA cargos were dissolved in 25 mM citrate, 100 mM NaCl, pH 5.0, resulting in a concentration of RNA cargo of approximately 0.45 mg/mL. The LNPs were formulated with a lipid amine to RNA phosphate (N:P) molar ratio of about 4.5 or about 6, with the ratio of mRNA to gRNA at 1:1 by weight.
The LNPs were formed by microfluidic mixing of the lipid and RNA solutions using a Precision Nanosystems NanoAssemblr™ Benchtop Instrument, according to the manufacturer's protocol. A 2:1 ratio of aqueous to organic solvent was maintained during mixing using differential flow rates. After mixing, the LNPs were collected, diluted in water (approximately 1:1 v/v), held for 1 hour at room temperature, and further diluted with water (approximately 1:1 v/v) before final buffer exchange. The final buffer exchange into 50 mM Tris, 45 mM NaCl, 5% (w/v) sucrose, pH 7.5 (TSS) was completed with PD-10 desalting columns (GE). If required, formulations were concentrated by centrifugation with Amicon 100 kDa centrifugal filters (Millipore). The resulting mixture was then filtered using a 0.2 μm sterile filter. The final LNP was stored at −80° C. until further use.
as §2, §3, §4, §6
Lipid nanoparticle formulations of modified sgRNAs targeting human TTR and the cyno matched sgRNA sequences were tested on primary human hepatocytes and primary cyno hepatocytes in a dose response curve. Primary human and cyno hepatocytes were plated as described in Example 1. […]

Row | Molecule | Avg % Deletion [1] | Avg % Edit [1] | Avg % Insert [1] | Max Editing [2] | Max Editing [3] | 12.5 ng mRNA, 3.9 nM sgRNA % Edit [4]
1 | B1 | 6.50% | 58.53% | 52.07% | 83.41 |  | 
2 | B2 | 0.10% | 95.53% | 95.50% | 99.97 | 13.48 | 
3 | B3 | 7.53% | 77.17% | 69.73% | 98.04 | 7.16 | 
4 | B4 | 3.07% | 89.43% | 86.90% | 99.18 | 89.49 | 60.13%
